Literature values, collected in publication PMC7154116.

Target: NTSR3/sortilin (UniProt Q99523)
Chain of UniProt Q99523 (Q99523 78-755): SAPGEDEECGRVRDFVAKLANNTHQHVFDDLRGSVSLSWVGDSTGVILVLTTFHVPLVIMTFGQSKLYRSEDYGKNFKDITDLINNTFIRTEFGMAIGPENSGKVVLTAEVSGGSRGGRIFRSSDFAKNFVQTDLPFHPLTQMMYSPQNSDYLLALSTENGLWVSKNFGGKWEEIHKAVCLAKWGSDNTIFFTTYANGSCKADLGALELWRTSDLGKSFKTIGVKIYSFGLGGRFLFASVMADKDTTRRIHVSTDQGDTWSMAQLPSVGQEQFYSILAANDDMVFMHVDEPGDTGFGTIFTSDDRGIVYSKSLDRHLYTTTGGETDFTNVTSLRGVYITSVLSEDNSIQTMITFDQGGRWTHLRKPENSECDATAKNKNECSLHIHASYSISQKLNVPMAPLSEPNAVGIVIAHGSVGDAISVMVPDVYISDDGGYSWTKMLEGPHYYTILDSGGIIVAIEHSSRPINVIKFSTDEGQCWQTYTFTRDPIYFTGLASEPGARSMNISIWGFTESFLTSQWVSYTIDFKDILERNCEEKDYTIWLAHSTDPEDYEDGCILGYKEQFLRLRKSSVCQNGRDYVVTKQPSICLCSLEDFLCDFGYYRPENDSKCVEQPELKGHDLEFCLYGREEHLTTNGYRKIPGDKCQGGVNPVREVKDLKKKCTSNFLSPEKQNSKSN

For “Spadin propeptide fragment (from UniProt Q99523)”, the Kd is given as 8 nM.
